Experimental data as given in US20220048947A1.
Where no end group is shown, it is not given here.

Biological target: NbALFA^ST (NbALFA clone 1G5)
Assay: peptide elution from NbALFA^ST resin; tag position M

Chain of NbALFA^ST (NbALFA clone 1G5) (VHH, as listed by the source): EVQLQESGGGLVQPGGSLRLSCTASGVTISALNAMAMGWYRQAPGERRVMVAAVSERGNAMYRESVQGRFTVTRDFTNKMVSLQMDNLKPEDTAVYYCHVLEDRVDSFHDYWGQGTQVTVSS

Row | Binder | t1/2
1 | DSPGLEQELRRRLPTA [ds…a (SEQ ID NO: 106)] | < 2 min
2 | DSGRLEQEIRRQLSPG [ds…g (SEQ ID NO: 102)] | < 2 min
3 | SDSGLEEEARRRLSPG [sd…g (SEQ ID NO: 97)] | < 2 min
4 | PDSGLEQELRRRLPTA [pd…a (SEQ ID NO: 104)] | < 2 min
5 | DSGRLEQEIRRELSPG [ds…g (SEQ ID NO: 103)] | < 2 min
6 | DSGRLEEELRSPG [dsGRLEEELR---SPg (SEQ ID NO: 96)] | < 2 min
7 | DSGRLEEELRRRSPG [ds…-SPg (SEQ ID NO: 94)] | < 2 min
8 | DSGPLEQELRRRLPTA [ds…a (SEQ ID NO: 107)] | < 2 min
9 | DSGALEQEIRRRLSPG [ds…g (SEQ ID NO: 100)] | < 2 min
10 | SDSGEEELRRRLSPG [sdSG-…g (SEQ ID NO: 92)] | < 2 min
11 | SDSGAEEELRRRLSPG [sd…g (SEQ ID NO: 98)] | < 2 min
12 | DSGRLEEELRRSPG [ds…--SPg (SEQ ID NO: 95)] | < 2 min
13 | DSGALEEELRRRLSPG [ds…g (SEQ ID NO: 99)] | < 2 min
14 | SDSGEELRRRLSPG [sdSG--…g (SEQ ID NO: 93)] | < 2 min
15 | DSGRLEQEIRRALSPG [ds…g (SEQ ID NO: 101)] | < 2 min
16 | DPSGLEQELRRRLPTA [dp…a (SEQ ID NO: 105)] | < 2 min

Biological target: NbALFA^ST (NbALFA clone 1G5)
Assay: peptide elution from NbALFA^ST resin; tag position N

Row | Binder | t1/2
17 | MSAVEEELRRRLSPS (not fully specified (residue 15); printed as MSAVEEELRRRLSPs) […s (SEQ ID NO: 109)] | < 2 min
18 | MSSAVEEELRRRLSPS (not fully specified (residues 2, 16); printed as MsSAVEEELRRRLSPs) [Ms…s (SEQ ID NO: 113)] | < 2 min
19 | MSAVEEELRRRLSPS (not fully specified (residue 15); printed as MSAVEEELRRRLSPs) […s (SEQ ID NO: 111)] | < 2 min
20 | MPSAVEEELRRRLSPS (not fully specified (residues 2, 16); printed as MpSAVEEELRRRLSPs) [Mp…s (SEQ ID NO: 112)] | < 2 min
